Laboratory results published in doi:10.1101/2023.10.12.561995 (bioRxiv, 2023).

Target: S-protein of WT SARS-CoV-2 (S-trimer) used in BLI (SARS-CoV-2 wildtype, UniProt P0DTC2, stabilised)
Experiment: BLI

B1: R1-26 (mAb, human IgG1) (antibody, V domains shown)
VH: EVQLVESGGGLVQPGGSLRLSCAASGFTFSSYWMSWVRQAPGKGLEWVANIKQDGSEKYYVDSVKGRFTISRDNAKNSLYLQMNSLRAEDTAVYYCARGQLGPWVGVDYWGQGTLVTVSS
VL: NFMLTQPHSVSESPGKTVTISCTGSSGSIASNYVQWYQQRPGSAPTTVIYEDNQRPSGVPDRFSGSIDSSSNSASLTISGLKTEDEADYYCQSYDSSNWVFGGGTQLTVL
binding result: binds
